B1: Chitin biosynthesis protein CHS5 (Saccharomyces cerevisiae), Q12114 (parent)
chain: MSSVDVLLTVGKLDASLALLTTQDHHVIEFPTVLLPENVKAGSIIKMQVSQNLEEEKKQRNHFKSIQAKILEKYGTHKPESPVLKIVNVTQTSCVLAWDPLKLGSAKLKSLILYRKGIRSMVIPNPFKVTTTKISGLSVDTPYEFQLKLITTSGTLWSEKVILRTHKMTDMSGITVCLGPLDPLKEISDLQISQCLSHIGARPLQRHVAIDTTHFVCNDLDNEESNEELIRAKHNNIPIVRPEWVRACEVEKRIVGVRGFYLDADQSILKNYTFPPVNEEELSYSKENEPVAEVADENKMPEDTTDVEQVASPNDNESNPSEAKEQGEKSGHETAPVSPVEDPLHASTALENETTIETVNPSVRSLKSEPVGTPNIEENKADSSAEAVVEEPNEAVAESSPNEEATGQKSEDTDTHSNEQADNGFVQTEEVAENNITTESAGENNEPADDAAMEFGRPEAEIETPEVNESIEDANEPAEDSNEPVEDSNKPVKDSNKPVEDSNKPVEDSNKPVEDSNKPVEDANEPVEDTSEPVEDAGEPVQETNEFTTDIASPRHQEEDIELEAEPKDATESVAVEPSNEDVKPEEKGSEAEDDINNVSKEAASGESTTHQKTEASASLESSAVTEEQETTEAEVNTDDVLSTKEAKKNTGNSNSNKKKNKKNKKKGKKK
partner: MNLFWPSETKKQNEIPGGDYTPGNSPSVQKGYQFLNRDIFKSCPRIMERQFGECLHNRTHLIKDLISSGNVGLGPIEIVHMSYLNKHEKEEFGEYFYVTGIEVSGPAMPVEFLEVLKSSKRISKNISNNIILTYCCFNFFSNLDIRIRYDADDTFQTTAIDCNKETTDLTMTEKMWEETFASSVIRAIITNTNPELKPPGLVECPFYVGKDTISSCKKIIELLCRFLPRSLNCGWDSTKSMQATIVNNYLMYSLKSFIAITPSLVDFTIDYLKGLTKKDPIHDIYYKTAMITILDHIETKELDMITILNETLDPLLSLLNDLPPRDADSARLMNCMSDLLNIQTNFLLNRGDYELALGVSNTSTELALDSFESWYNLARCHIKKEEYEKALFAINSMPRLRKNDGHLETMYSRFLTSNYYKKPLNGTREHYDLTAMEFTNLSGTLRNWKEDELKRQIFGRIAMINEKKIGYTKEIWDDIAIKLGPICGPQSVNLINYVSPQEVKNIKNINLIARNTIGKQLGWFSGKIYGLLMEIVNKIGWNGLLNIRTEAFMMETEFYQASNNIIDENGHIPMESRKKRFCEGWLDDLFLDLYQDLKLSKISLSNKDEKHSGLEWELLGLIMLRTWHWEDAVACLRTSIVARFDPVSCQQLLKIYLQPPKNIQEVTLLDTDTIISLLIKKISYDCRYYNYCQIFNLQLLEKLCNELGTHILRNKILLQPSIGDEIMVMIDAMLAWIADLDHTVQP
B2: Chitin biosynthesis protein CHS6 (Saccharomyces cerevisiae), P40955 (parent)
chain: B1 partner
partner: B1 chain

Variants of: B1
Settings: with chs6_yeast CHS6, P40955

Variant	effect of a mutation on the interaction
Q67E	disrupting interaction
F63E	disrupting interaction

Variants of: B2
Settings: with chs5_yeast CHS5, Q12114

Variant	effect of a mutation on the interaction
I305R	disrupting interaction

— IntAct's records for PubMed 23000721
